From paper PMC3655063, “A UDP-X Diphosphatase from Streptococcus pneumoniae Hydrolyzes Precursors of Peptidoglycan Biosynthesis” (PLoS ONE, 2013)

How the values were obtained:
[1] = substrate: CC(=O)N[C@H]1[C@@H](OP(=O)(O)OP(=O)(O)OC[C@H]2O[C@@H](n3ccc(=O)[nH]c3=O)[C@H](O)[C@@H]2O)O[C@H](CO)[C@@H](O)[C@@H]1O[C@H](C)C(=O)N[C@@H](C)C(=O)O; assay: orthophosphate release with calf intestinal alkaline phosphatase coupling; Michaelis-Menten fit of initial rates; assay type: biochemical, Streptococcus pneumoniae; conditions: 50 mM Tris pH 8.4, 5 mM MgCl2, 100 nM enzyme, 37°C for the relative activity assay
From the text: (§1) orthophosphate release with calf intestinal alkaline phosphatase coupling; Michaelis-Menten fit of initial rates on UDP-X diphosphatase (UDP-Xase), SP_1669

[2] = substrate: CC(=O)N[C@H]1[C@@H](OP(=O)(O)OP(=O)(O)OC[C@H]2O[C@@H](n3ccc(=O)[nH]c3=O)[C@H](O)[C@@H]2O)O[C@H](CO)[C@@H](O)[C@@H]1O[C@H](C)C(=O)O; assay: as above; assay type: biochemical, Streptococcus pneumoniae; conditions: 50 mM Tris pH 8.4, 5 mM MgCl2, 100 nM enzyme, 37°C for the relative activity assay
From the text: as §1

[3] = substrate: O=c1ccn([C@@H]2O[C@H](CO[P@@](=O)(O)O[P@@](=O)(O)O[C@H]3O[C@H](CO)[C@@H](O)[C@H](O)[C@H]3O)[C@@H](O)[C@H]2O)c(=O)[nH]1; assay: as above; assay type: biochemical, Streptococcus pneumoniae; conditions: 50 mM Tris pH 8.4, 5 mM MgCl2, 100 nM enzyme, 37°C for the relative activity assay
From the text: as §1

[4] = target: the molecule itself; assay: SEC; size-exclusion chromatography, data not shown
[5] = target: the molecule itself; assay: SAXS; small-angle X-ray scattering of the mutants in solution, 4.5 and 6 mg/mL; ab initio envelopes fitted with the wild-type crystal dimer (PDB 4HFQ)

B1: UDP-X diphosphatase from Streptococcus pneumoniae TIGR4 (SP_1669 gene product), wild type (enzyme, UniProt A0A0H2URA0 1-203, looked up)
chain: MKTSDFVKYLQRMIAITDTGLTFTKDPFDRERYEDLRSLLSEMLNQASDLDSEEVAEVLKPTSAYATPLMDVRAWIVEDEKICLVRGQGEDSWALPGGFGEVGYSPTENILKEIEEETGFKAKVERLLAVFDTNRFQLQSKQYTKFVFGCKLLDGQFQENQEIADLQFFAIDQLPNLSEKRITKEQIELLWQVYQGHRGQYLD
notes: Nudix hydrolase UDP-X diphosphatase encoded by gene SP_1669 of Streptococcus pneumoniae TIGR4; the gene was amplified from genomic DNA with NdeI and BamHI sites at its start and end; the structure describes residues 1-203 (N-terminal domain 1-59, loop 60-68, C-terminal catalytic domain 69-203); No tag is named; also called UDP-Xase; source: E. coli BL21(DE3), pET-24a, purified (ammonium sulfate, …)
B1 was tested, and the Km [1] was 1600 ± 300 µM, the Vmax [1] was 28.3 µM/min and the kcat [1] was 4.7 ± 0.2 s⁻¹. It also gave a kcat/Km [1] of 2900 ± 700 M⁻¹ s⁻¹, a Km [2] of 3600 ± 400 µM and a Vmax [2] of 17.7 µM/min. The kcat [2] was 3 ± 0.1 s⁻¹, the kcat/Km [2] was 800 ± 100 M⁻¹ s⁻¹ and the Km [3] was 2900 ± 1100 µM. It also gave a Vmax [3] of 7 µM/min, a kcat [3] of 1.2 ± 0.1 s⁻¹ and a kcat/Km [3] of 400 ± 200 M⁻¹ s⁻¹. For the same protein, the “stoichiometry N” value [4] was 2.

B2: UDP-X diphosphatase E162A mutant (enzyme)
chain: MKTSDFVKYLQRMIAITDTGLTFTKDPFDRERYEDLRSLLSEMLNQASDLDSEEVAEVLKPTSAYATPLMDVRAWIVEDEKICLVRGQGEDSWALPGGFGEVGYSPTENILKEIEEETGFKAKVERLLAVFDTNRFQLQSKQYTKFVFGCKLLDGQFQENQAIADLQFFAIDQLPNLSEKRITKEQIELLWQVYQGHRGQYLD
notes: UDP-X diphosphatase encoded by gene SP_1669 of Streptococcus pneumoniae TIGR4, with E162A made by site-directed mutagenesis of the wild-type construct; Same construct as m1 apart from the mutation; also called UDP-Xase E162A; source: E. coli, expressed as the wild type, purified (ammonium sulfate, Phenyl FF, Source Q, Sephacryl S200)
B2: binds [5].

B3: UDP-X diphosphatase E113A mutant (enzyme)
chain: MKTSDFVKYLQRMIAITDTGLTFTKDPFDRERYEDLRSLLSEMLNQASDLDSEEVAEVLKPTSAYATPLMDVRAWIVEDEKICLVRGQGEDSWALPGGFGEVGYSPTENILKAIEEETGFKAKVERLLAVFDTNRFQLQSKQYTKFVFGCKLLDGQFQENQEIADLQFFAIDQLPNLSEKRITKEQIELLWQVYQGHRGQYLD
notes: UDP-X diphosphatase encoded by gene SP_1669 of Streptococcus pneumoniae TIGR4, with E113A made by site-directed mutagenesis of the wild-type construct; Same construct as m1 apart from the mutation; also called UDP-Xase E113A; source: E. coli, expressed as the wild type, purified (ammonium sulfate, Phenyl FF, Source Q, Sephacryl S200)
For B3, the “stoichiometry N” value [5] was 2.
